Experimental data from patent US20250360220A1, “REGULATION OF TAU USING PROTEIN-LIKE POLYMERS AND USES THEREOF” (NORTHWESTERN UNIVERSITY, priority 2022, published 2025).

Legend:
K18 Tau = target: T1, K18 Tau (Homo sapiens, UniProt P10636); experiment: Tau Kinetics Thioflavin T plate reader assay; assay type: biochemical; conditions: for PLP or Pep/Tau %: Avg P amplitude divided by Avg Tau amplitude x 100; for PLP or Pep 10 hr (average amplitude, fluorescent intensity readout, of the Tau trace treated with that compound) / PLP or Pep 15 hr (average amplitude) / PLP or Pep 20 hr (average amplitude): K18 Tau 10 μM, heparin, thioflavin T, PBS; for Avg P Amplitude: average of the amplitudes at 10, 15 and 20 hr; for % amp change: change in amplitude relative to control Tau
T1 construct: K18 Tau was first expressed, collected, and purified; His tag (cleaved yes); made in house
Experimental: (§1) Tau Kinetics Thioflavin T Plate Reader Assay Protocol: First, controls and the effects of varying concentrations of K18 Tau were examined (FIG. 24). In FIG. 24, 1X Tau refers to 10 μM K18 Tau final concentration in the well with 100 μl total volume (i.e., 0.5× Tau refers to 5 μM K18 Tau and 2× Tau refers to 20 μM K18 Tau). Before PLPs were added to K18 Tau, the concentration at which the mimetic aggregative polymers would not activate Thioflavin T was evaluated. Based on the results depicted in FIG. 25, a PLP concentration of 1 μM was selected for further experimentations. […] Given the goal to investigate effects of the PLPs, it was determined that too high of a concentration could easily be adjusted, whereas too low of a concentration could result in a false negative with respect to impact.
PLPs incorporating SEQ ID: 4 (“TP4”), SEQ ID: 2 (“TP7”), or SEQ ID: 10 (“TP12”) as peptide sidechains were tested. The PLPs, K18 Tau (10 μM) and Thio T (Sigma) at a final concentration of 10 μM was added, and aggregation was induced by the addition of a freshly prepared heparin sodium salt solution (Santa Cruz) at a final concentration of 44 μg/ml. For non-induced controls, assay buffer was added in place of heparin solution to a final volume of 100 μl per well. Aggregation reactions were carried out at 37° C. with continuous shaking and monitored via ThT fluorescence (excitation, 444 nm; emission, 485 nm; cutoff, 480 nm) in a Spectramax M5 microplate reader (Molecular Devices). Readings were taken every 5 min for a minimum of 24 h.
Table C. Summary of results depicted in FIGS. 26, 28, and 29 in the event the graphical representations are difficult to ascertain. Values are rounded to the nearest whole number. Tau 10 hr refers to the average amplitude (fluorescent intensity readout) of an n=6 of the control Tau (meaning no peptide or polymer added, just heparin, thioflavin T, and PBS) trace at 10 hour. The same applies to Tau 15 hr and Tau 20 hr. Avg Tau amplitude refers to the average of the amplitudes at 10, 15, and 20 hr in the previous columns. As Tau is the control for each individual plate, and these readings were done on three separate plates, there are 3 different sets of average amplitudes. Similar to the aforementioned, PLP or Pep 10 hr refers to the average amplitude (n=6 for PLP and n=3 for peptide) of the Tau trace treated with that compound at 10 hours. Avg P amplitude refers to the average of the amplitude at the 3 times, or the average of the 3 previous columns. PLP or Pep/Tau % is the result of dividing the Avg P amplitude by Avg Tau amplitude and multiplying by 100. % amp change refers to the change in amplitude given by subtracting Tau average amplitude from P average amplitude and dividing by Tau average amplitude and multiplying by 100.

Circular dichroism = assay type: physicochemical; conditions: 37° C.; for CD conformation of free peptides: before and after addition of heparin; for CD conformation of PLPs: Tris buffer pH 7.4
Experimental: The proteomimetic similarities were further investigated using circular dichroism. Samples tested included K18 Tau, PLPs having SEQ ID: 4, SEQ ID: 2, and SEQ ID: 10, as well as said PLPs with K18 Tau. Each of these samples were dissolved in Tris buffer (10 mM Tris, 50 mM NaF, 0.5 mM dithiothreitol) and pH was adjusted to 7.4. Samples were tested with and without the addition of heparin. For samples containing heparin, samples were incubated in the presence of 10 μM heparin sodium salt for 24 hours. Polymers and peptides were run at 37° C., at a concentration of 3 mg/10 ml and K18 Tau was run at 10 uM. Parameters were: 1 mm quartz cuvette, continuous scan at 10 nm/min over 260 to 200 nm, 3 acquisitions averaged for one trace.

[1] = Concentration dependence of polymer activation of Thioflavin T (no Tau); conditions: 1 μM PLP, no Tau (FIG. 25)
Source text: FIG. 25: Concentration dependence of polymer activation of Thioflavin T. TP4: PLP homopolymer incorporating SEQ ID: 4 as peptide sidechains. TP7: PLP homopolymer incorporating SEQ ID: 2 as peptide sidechains. TP4 and TP7 controls: PLP homopolymer, thioflavin T, no heparin, and PBS. The remainder of controls were at baseline and were removed from this FIG. 25 to improve readability. ThioT control: no Tau, no heparin, thioflavin T and PBS. ThioT heparin control: no Tau, no PLPs, thioflavin T, heparin, and PBS. n=3.
as §1

[2] = system: Mouse striatal cells HdhQ7/7; experiment: Cell permeability assay with rhodamine labeled PLPs (confocal imaging); assay type: cell-based; conditions: incubated with the cells for 24 hours
Experimental: Mouse striatal cells HdhQ7/7 from Coriell Institute were plated in 4-chamber 35 mm round glass-bottom dishes at a density of 50,000 per well. Cells were incubated for 24 hours in a 5% CO2 atmosphere at 33° C. Rhodamine labeled PLPs, rhodamine dye, and vehicle control in 10% FBS DMEM medium without phenol red were incubated with the cells for 24 hours, respectively. The cell nuclei (stained with Hoechst) were accomplished using a 405 nm laser with a 15% laser power. The cell membrane (stained with Wheat Germ Agglutinin, Alexa Fluor 488 Conjugate) was accomplished using a 488 nm laser with a 12% laser power. Cell imaging for Rhodamine fluorescence was accomplished using a 581 nm laser with an 8% laser power.

[3] = Liquid-liquid phase separation (LLPS) of rhodamine labeled PLPs; assay type: physicochemical
Experimental: Solutions were dissolved in HEPES buffer: 10 mM HEPES buffer (pH 7.4) with 0.1 mM EDTA and 2 mM DTT, Media buffer: Dulbecco Modified Eagles Medium (high glucose) with 2 mM L-glutamine with 10% Fetal Bovine Serum, 1% Penicillin/Streptomycin, or water. Different crowding agents were also tested using HEPES buffer—PEG and heparin. For heparin, stock solutions of 10 μM of each rhodamine labeled PLP (using either SEQ ID: 4 or SEQ ID: 7 as peptide monomers) and 30 μM of heparin sodium salt were prepared in buffer and kept refrigerated. Before experiments, solutions were given at least 30 min to come to room temperature and experiments were carried out at room temperature. In the microscope room, 20 μL of PLP was added to 5 μL of heparin and mixed gently in a microcentrifuge tube. 5 μL of solution was immediately pipetted onto Fisherbrand glass microscope slides and coverslip applied. All reactions were visualized on Olympus BX53 Fluorescent Microscope using the 581 nm laser to monitor the rhodamine, as well as brightfield. LLPS occurred within 60 min of initiation.

[4] = STEM / dry state TEM of PLP homopolymers; assay type: physicochemical; conditions: prepared in H2O
Experimental: Using standard STEM protocols, PLPs having SEQ ID: 2 or SEQ ID: 4 as peptide monomers were prepared in H2O and visualized. […] Further, from the results depicted in FIG. 17, the homopolymer the beta sheet forming nature was confirmed. After putting the PLPs in HEPES LLPS buffer and heating to 37° C. (i.e., body temperature), a time course established the fibrilization of the polymer on dry state TEM. The same fibrilization was seen on purified K18 Tau protein 24 hours after incubation with heparin in PBS as depicted in FIG. 19. The remarkably similar characteristics was a testament to the mimetic capabilities of the PLP.

T1 sequence (P10636 561-685 limits assumed): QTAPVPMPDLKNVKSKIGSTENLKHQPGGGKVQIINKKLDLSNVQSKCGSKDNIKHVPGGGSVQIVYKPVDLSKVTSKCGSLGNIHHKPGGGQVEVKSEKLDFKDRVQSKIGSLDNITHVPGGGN

| Substance | PLP or Pep/Tau % (K18 Tau; 1 μM PLP/Pep) [%] | PLP or Pep 10 hr (average amplitude, fluorescent intensity readout, of the Tau trace treated with that compound) (K18 Tau; 1 μM PLP/Pep) | PLP or Pep 15 hr (average amplitude) (K18 Tau; 1 μM PLP/Pep) | PLP or Pep 20 hr (average amplitude) (K18 Tau; 1 μM PLP/Pep) | Avg P Amplitude (K18 Tau; 1 μM PLP/Pep) | % amp change (K18 Tau; 1 μM PLP/Pep) [%] | PLP or Pep/Tau % (K18 Tau; 10 μM PLP/Pep) [%] | PLP or Pep 10 hr (average amplitude, fluorescent intensity readout, of the Tau trace treated with that compound) (K18 Tau; 10 μM PLP/Pep) | PLP or Pep 15 hr (average amplitude) (K18 Tau; 10 μM PLP/Pep) | PLP or Pep 20 hr (average amplitude) (K18 Tau; 10 μM PLP/Pep) | Avg P Amplitude (K18 Tau; 10 μM PLP/Pep) | % amp change (K18 Tau; 10 μM PLP/Pep) [%] | CD conformation of free peptides (Circular dichroism) | CD conformation of PLPs (Circular dichroism; after addition of heparin) | CD conformation of PLPs (Circular dichroism; before heparin was added) | also measured |
| --- | --- | --- | --- | --- | --- | --- | --- | --- | --- | --- | --- | --- | --- | --- | --- | --- |
| DRVQIVYKRR [P7] | 135 | 417 | 411 | 545 | 458 | 11 | 126 | 395 | 448 | 438 | 427 | 4 | beta sheet formation | – | – | – |
| TP4: PLP generated from peptide monomers characterized by SEQ ID: 4 (VQIINKRR) | 143 | 730 | 936 | 961 | 876 | 44 | – | – | – | – | – | – | – | beta sheet formation | random coil formations | Thioflavin T signal of the polymer [1]: significant signal; Capability to permeate the striatal cells [2]: demonstrated the capability to permeate the striatal cells; Liquid-liquid phase separation ([3]; HEPES buffer with PEG as crowding agent): induce LLPS phase condensates; Liquid-liquid phase separation ([3]; HEPES buffer with heparin, room temperature): capable of liquid-liquid phase separation; Conformation by STEM [4]: beta sheet conformations |
| TP12: PLP generated from peptide monomers characterized by SEQ ID: 10 (VQPINK) | 34 | 116 | 129 | 143 | 129 | −69 | 9 | 36 | 37 | 36 | 36 | −91 | – | beta sheet formation | random coil formations | Effect of inhibitor polymer on fibril formation of K18 Tau (K18 Tau; two concentrations, 1 μM and 10 μM, with heparin (FIG. 29)): significantly prevented fibril formation of K18 Tau |
| VQIINKRR [P4] | 177 | 588 | 558 | 657 | 601 | 46 | 129 | 417 | 497 | 395 | 436 | 6 | beta sheet formation | – | – | – |
| VQPINK [P12] | 182 | 605 | 555 | 693 | 618 | 50 | 140 | 584 | 413 | 424 | 474 | 15 | beta sheet formation | – | – | – |
